Experimental data published in patent US20230279079A1 (published 2023).
Read-outs that look alike come from different tables or passages of the source.

Tests used:
[1] = biological target: SARS-CoV-2 spike extracellular domain (SARS-CoV-2, UniProt P0DTC2 14-1213); experiment: ELISA
[2] = biological target: T1, SARS-CoV-2 spike receptor binding domain (RBD) (SARS-CoV-2, UniProt P0DTC2 319-541); experiment: flow
[3] = biological target: T1, SARS-CoV-2 spike receptor binding …; experiment: flow; remark: listed apart in the source
[4] = biological target: RBD-VLP (SARS-CoV-2, UniProt P0DTC2 340-538)

Binder | Kd [1] [nM] | also measured
FD 11C (antibody, V domains shown) VH: EVQLLESGPGLVKPSETLSLTCTVSGGSISSSSYYWGWIRQPPGKGLEWIGSIYYSGSTYYNPSLKSRVTISVDTSKNQFSLKLSSVTAADTAVYYCAREYYYGSETKKYYYYYGMDVWGQGTTVTVSS VL: not shown | 0.98 | –
FN 12A (antibody, V domains shown) VH: QVQLVQSGAEVKKPGSSVKVSCKASGGTFSSYAISWVRQAPGQGLEWMGRIIPILGIANYAQKFQGRVTITADKSTSTAYMELSSLRSEDTAVYYCARSGCSSTSCPSNLYYYYYGMDVWGQGTTVTVSS VL: QSVLTQPPSVSAAPGQKVTISCSGSSSNIGNNYVSWYQQLPGTAPKLLIYDNNKRPSGIPDRFSGSKSGTSATLGITGLQTGDEADYYCGTWDSSLSALVFGGGTKLTVL | 0.38 | Kd [2]: 1.12 nM
FD 1E (antibody, V domains shown) VH: EVQLLESGGGLVKPGGSLRLSCAASGFTFSSYSMNWVRQAPGKGLEWVSSISSSSSYIYYADSVKGRFTISRDNAKNSLYLQMNSLRAEDTAVYYCASLAAAGPETYYYYGMDVWGQGTMVTVSS VL: not shown | 20.5 | –
FI 3A (antibody, V domains shown) VH: EVQLLESGGGLIQPGGSLRLSCAASGFTVSSNYMSWVRQAPGKGLEWVSVIYSGGSTYYADSVKGRFTISRDNSKNTLYLQMNSLRAEDTAVYYCARDHVRPGMNIWGQGTMVTVSS VL: not shown | 6.61 | Kd [3]: 3.83 nM
FB 1E (antibody, V domains shown) VH: EVQLVESGAEVKKPGESLKISCQGSGYRFNSYWIAWVRQMPGKGLEWMGSIFPTDSDIRYNPSFQGQVTISADKSISIAYLQWSSLKASDTAIYYCARHWASMVRGVIRASHYYGMDVWGQGTTVTVSS VL: QSVLTQPPSASGSPGQSVTISCSGASSDIGDYNYVSWYQQLPGKAPKLLIYEVTKRPSGVPDRFSGSKSGNTASLTVSGLQADDEADYYCSSYAFGGSDIRVFGGGTKLAVL | 0.41 | –
FD 10A (antibody, V domains shown) VH: EVQLVESGGGLVQPGGSLRLSCAASGFTFSSYWMHWVRQAPGKGLVWVSRINSDGSSTSYADSVKGRFTISRDNAKNTLYLQMNSLRAEDTAVYYCANMAFDIWGQGTMVTVSS VL: not shown | 0.42 | –
FJ 10B (antibody, V domains shown) VH: QVQLVQSGAEVKKPGESLRISCKGSGYSFTSYWISWVRQMPGKGLEWMGRIDPSDSYTNYSPSFQGHVTISADKSISTAYLQWSSLKASDTAMYYCARLDPRYGPDYYGMDVWGQGTTVTVSS VL: AIRMTQSPSSLSASVGDRVTITCRASQSISSYLNWYQQKPGKAPKLLIHAASSLQSGVPSRFSGSGSGTDFTLTMSSLQPEDFATYYCQQSYSTPLTFGGGTKVEIR | 7.57 | Kd [3]: 3.73 nM
FG 12C (antibody, V domains shown) VH: EVQLVESGGGLVQPGRSLRLSCAASGFTFDDYAMHWVRQAPGKGLEWVSGISWNSGSIGYADSVKGRFTISRDNAKNSLYLQMNSLRAEDTALYYCAKDMRVHDYGDYYFDYWGQGTLVTVSS VL: SYELTQPPSVSVAPGKTARITCGGNNIGSKSVHWYQQKPGQAPVLVIYYDSDRPSGIPERFSGSNSGNTATLTISRVEAGDEADYYCQVWDSSSDHPVFGGGTKLTVL | 2.54 | –
FD 7C (antibody, V domains shown) VH: QLQLQESGPGLVKPSETLSLTCTVSGGSISSYYWSWIRQPPGKGLEWIGYIYYSGSTNYNPSLKSRVTISVDTSKNQFSLKLSSVTAADTAVYYCARDYRFGELFGRFAWFDPWGQGTLVTVSS VL: not shown | 0.18 | –
FI 4A (antibody, V domains shown) VH: EVQLVESGGGLVKPGGSLRLSCAASGFTFSRFSMNWVRQAPGKGLEWVSSISSSGSYIYFADSVKGRFTISRDNAKNSLYLQMNSLRAEDTAIYYCATYLFGDSHTYWGQGTLVTVSS VL: QSVLTQPHSVSESPGKTVTISCTGSSGSIASNYVQWYQQRPGSAPTTVIYEDNQRPSGVPDRFSGSIDSSSNSASLTISGLKTEDEADYYCQSYDSSNLHWVFGGGTKLTVL | 0.41 | Kd [2]: 7.9 nM
FM 7B (antibody, V domains shown) VH: EVQLVQSGAEVKKPGASVKVSCKASGYTFTSYAMHWVRQAPGQRLEWMGWINTGNGNTKYSQKFQGRVTITRDTSASTAYMELSSLRSEDTAVYYCARDPTYCSSTSCYPFSWFDPWGQGTLVTVSS VL: NFMLTQPPSVSVAPGQTARITCGGNNIGSKSVHWYQQKPGQAPVLVVYDDSDRPSGIPERFSGSNSGNTATLTISRVEAGDEADYYCQVWDSTGDHSWVFGGGTKLTVL | 0.51 | Kd [2]: 0.64 nM
FI-1C (antibody, V domains shown) VH: EVQLVESGGGLVKPGGSLRLSCAASGFTFSDYYMSWIRQAPGKGLEWVSYISSSGSTIYYADSVKGRFTISRDNAKNSLYLQMNSLRAEDTAVYYCARRSNRFLIAFDIWGQGTMVTVSS VL: QSALTQPASVSGSPGQTITISCTGTSSDVGGYNYVSWYQQHPGKAPKLMIYEVSNRPSGVSNRFSGSKSGNTASLTISGLQAEDEADYYCSSYTSSSTLVVFGGGTKLTVP | – | IC50 [4]: 23 nM
FN 8C (antibody, V domains shown) VH: QVQLVESGGGVVQPGRSLRLSCAASGFTFSSYGMHWVRQAPGKGLEWVAVISYDGSNKYYADTVKGRFTISRDNSKNTLYLQMNSLRAEDTAVYYCARERTYYDILTGYRHYYGMDVWGQGTTVTVSS VL: SYELTQPPSVSVAPGQTARITCGGNNIGSKSVHWYQQKPGQAPVLVVYDDSDRPSGIPERFSGSNSGNTATLTISRVEAGDEADYYCQVWDSSSDHWVFGGGTKLTVL | 63.9 | –
FB 9D (antibody, V domains shown) VH: QVQLVESGAEVKKPGESLKISCQGSGYRFNSYWIAWVRQMPGKGLEWMGSIFPTDSDVRYNPSFQGQVTISADKSISFAYLQWSSLKASDTAIYYCARHWASMVRGVIRASHYYGMDVWGQGTTVTVSS VL: QPVLTQPPSASGSPGQSVTISCSGASSDIGKYNYVSWYQQLPGKAPKLLIYEVTKRPSGVPDRFSGSKSGNTASLTVSGLQADDEADYYCSSYAFGGSDTRVFGGGTKLTVL | 0.29 | –
EZ 7A (antibody, V domains shown) VH: EVQLVESGAEVKKPGESLKISCKGSGYSFTSYWIGWVRQMPGKGLEWMGIIYPGDSDTRYSPSFQGQVTISADKSISTAYLQWSSLKASDTAMYYCARGWVYRGFPYYGMDVWGQGTMVTVSS VL: QSALTQPRSVSGSPGQSVTISCTGTSSDVGGYNYVSWYQQHPGKAPKLMIYDVSKRPSGVPDRFSGSKSGNTASLTISGLQAEDEADYYCCSYAGSYTLVFGGGTKLTVL | 1.08 | Kd [3]: 11.4 nM
FJ 1C (antibody, V domains shown) VH: QVQLQESGPGLVKPSETLSLTCTVSGYSISSGYYWGWIRQPPGKGLEWIGSIYHSGSTYYNPSLKSRVTISVDTSKNQFSLKLSSVTAADTAVYYCARDKALLWFGELFTNLFDYWGQGTLVTVSS VL: QSALTQPASVSGSPGQSITISCTGTSSDVGGYNYVSWYQQHPGKAPKLMIYEVSNRPSGVSNRFSGSKSGNTASLTISGLQAEDEANYYCSSYTSSSTLVFGGGTKLTVL | 0.57 | –
FD 11D (antibody, V domains shown) VH: EVQLVESGGGVVQPGRSLRLSCAASGFTFSSYGMHWVRQAPGKGLEWVAVISYDGSNKYYADSVKGRFTISRDNSKNTLYLQMNSLRAEDTAVYYCAKEGAGSGWYRHHKPGYYFDYWGQGTLVTVSS VL: not shown | 3.54 | –
FD 11A (antibody, V domains shown) VH: EVQLVESGGGVVQPGRSLRLSCAASGFTFSSYGMHWVRQAPGKGLEWVAVIWYDGSNKYYADSVKGRFTISRDNSKNTLYLQMNSLRAEDTAVYYCAKGPDILTGYYNYYYYGMDVWGQGTMVTVSS VL: QSVLTQPPSVSGAPGQRVTISCTGSSSNIGAGYDVHWYQQLPGTAPKLLIYGNSNRPSGVPDRFSGSKSGTSASLAITGLQAEDEADYYCQSYDSSLSGFYVVFGGGTKLTVL | 0.4 | Kd [2]: 0.75 nM
FI 1C (antibody, V domains shown) VH: EVQLVESGGGLVKPGGSLRLSCAASGFTFSDYYMSWIRQAPGKGLEWVSYISSSGSTIYYADSVKGRFTISRDNAKNSLYLQMNSLRAEDTAVYYCARRSNRFLIAFDIWGQGTMVTVSS VL: QSALTQPASVSGSPGQTITISCTGTSSDVGGYNYVSWYQQHPGKAPKLMIYEVSNRPSGVSNRFSGSKSGNTASLTISGLQAEDEADYYCSSYTSSSTLVVFGGGTKLTVP | 1.18 | Kd [2]: 12.2 nM
FD 5D (antibody, V domains shown) VH: EVQLVESGGGLVQPGGSLRLSCAASGFTFSSYSMNWVRQAPGKGLEWVSYISSSSSTIYYADPVKGRFTISRDNAKNSLYLQMNSLRAEDTAVYYCASPGGITAAGTSVLFGYYGMDVWGQGTMVTVSS VL: not shown | 0.58 | Kd [3]: 0.93 nM
FD 7D (antibody, V domains shown) VH: EVQLVESGAEVKKPGESLRISCKGSGYSFTSYWISWVRQMPGKGLEWMGRIDPSDSYTNYSPSFQGHVTISADKSISTAYLQWSSLKASDTAMYYCARHSDCSSTSCYFVDAFDIWGQGTMVTVSS VL: not shown | 64 | –
FN 2C (antibody, V domains shown) VH: EVQLLESGGGVVQPGRSLRLSCAASGFNFNNYGMHWVRQAPGKGLEWVATISYEGSKKFYVDSVKGRFTISKDNSKNTLYLQMNSLRVDDTAFYYCAKRREIFWLGEPPLSDAFDFWGQGTMVTVSS VL: QSVLTQPPSVSGAPGQRVTISCTGSGSNIGAGYDVHWYQFLPGTAPQLLIYGNNNRPSGVPDRFSGSKSGTSASLAITGLQAEDEADYYCQSYDSSLSGSVFGGGTKLTVL | 0.3 | –
FD 11E (antibody, V domains shown) VH: EVQLVESGGGLVKPGGSLRLSCAASGFTFSSYSMNWVRQAPGKGLEWVSSISSSSSYIYYADSVKGRFTISRDNAKNSLYLQMNSLRAEDTAVYYCASLAAAGPETYYYYGMDVWGQGTMVTVSS VL: not shown | 19.5 | –
FD 8B (antibody, V domains shown) VH: EVQLLESGAEVKKPGASVKVSCKVSGYTLTELSMHWVRQAPGKGLEWMGGFDPEDGETIYAQKFQGRVTMTEDTSTDTAYMELSSLRSEDTAVYYCATAAAINCSSTSCYYYYYYYGMDVWGQGTTVTVSS VL: not shown | 10.4 | –
